The target of series [1] is Myf5 (full length, mouse) (mouse) (UniProt P24699).
The target of another series is NLSMyf5 (mouse) (UniProt P24699).
In series [2] the target is Myf5 (full length, mouse) (mouse) (UniProt P24699). The source holds these as a separate data set.
Series [3] concerns the target Myogenin (full length, mouse) (mouse) (UniProt P12979).
Another series has as its target NLSMyogenin (mouse) (UniProt P12979).
The target of series [4] is Myf5 (full length, mouse) (mouse) (UniProt P24699). The source holds these as a separate data set.
The target in series [5] is Myogenin (full length, mouse) (mouse) (UniProt P12979). The source holds these as a separate data set.
Myogenin (full length, mouse) (mouse), sequence (P12979 whole entry): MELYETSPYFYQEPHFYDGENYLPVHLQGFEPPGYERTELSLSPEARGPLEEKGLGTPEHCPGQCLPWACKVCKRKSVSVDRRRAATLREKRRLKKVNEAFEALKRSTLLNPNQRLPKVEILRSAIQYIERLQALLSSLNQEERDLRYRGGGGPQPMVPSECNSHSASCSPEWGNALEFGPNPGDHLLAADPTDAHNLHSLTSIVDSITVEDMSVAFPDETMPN
Series [6] addresses MyoD (full length, mouse) (mouse) (UniProt P10085).
In series [7] the target is E12.
Series [8] concerns the target MyoDΔN-VP16 (Mus musculus (Mouse)) (UniProt P10085). The series can be described thus: yeast two-hybrid, strain L40, β-galactosidase reporter.
For series [9], the target named is MyoDΔC-VP16 (Mus musculus (Mouse)) (UniProt P10085). Described as above.
The target in series [10] is Myf5 (full length, mouse) (mouse) (UniProt P24699). The series can be described thus: yeast one-hybrid, strain L40, β-galactosidase reporter.
The target in series [11] is T1, Lethal of Scute (AS-C T3) (Drosophila melanogaster (Fruit fly)) (UniProt P09774).
T1 sequence: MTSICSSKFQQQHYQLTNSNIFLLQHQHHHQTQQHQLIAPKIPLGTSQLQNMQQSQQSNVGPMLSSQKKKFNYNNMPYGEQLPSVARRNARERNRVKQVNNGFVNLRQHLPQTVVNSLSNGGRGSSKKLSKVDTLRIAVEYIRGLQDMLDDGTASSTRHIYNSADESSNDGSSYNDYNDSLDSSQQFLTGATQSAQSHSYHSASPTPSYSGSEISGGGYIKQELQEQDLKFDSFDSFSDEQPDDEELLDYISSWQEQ
The series is described as above.

Series [12] concerns the target E12. The series is described as above.
The target of series [13] is MyoD (full length, mouse) (mouse) (UniProt P10085). The series is described as above.
For series [14], the target named is Myf5 (full length, mouse) (mouse) (UniProt P24699). As to the kind of experiment: yeast hybrid assay, strain L40, β-galactosidase reporter.
Series [15] has as its target T2, VP16-I-mfa (mouse).
T2 sequence: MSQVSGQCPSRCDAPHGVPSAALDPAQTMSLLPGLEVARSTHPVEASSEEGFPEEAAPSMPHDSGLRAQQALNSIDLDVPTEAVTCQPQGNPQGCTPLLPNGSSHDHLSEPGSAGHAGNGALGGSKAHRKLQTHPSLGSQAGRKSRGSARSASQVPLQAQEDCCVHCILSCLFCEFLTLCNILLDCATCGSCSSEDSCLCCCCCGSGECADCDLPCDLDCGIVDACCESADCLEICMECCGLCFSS
The series is described as above.

In series [16] the target is VP16 (Human herpesvirus 1 (strain 17) (HHV-1) (Human herpes simplex virus 1)) (UniProt P06492). The description is as above.
Series [17] deals with VP16-I-mfc (mouse). Described as above.
The target in series [18] is VP16-I-mfb (mouse). The series is described as above.
Series [19] addresses Myf5 (full length, mouse) (mouse) (UniProt P24699). As to the kind of experiment: yeast hybrid assay, strain L40, β-galactosidase reporter; this LexA fusion is also active with VP16 alone.
Series [20] concerns the target T2, VP16-I-mfa (mouse). The series is described as above.
The target of series [21] is VP16-I-mfc (mouse). The series is described as above.
Series [22] deals with VP16-I-mfb (mouse). The description is as above.
The target of series [23] is full length Myf5 or myogenin. As to the kind of experiment: yeast one-hybrid, strain L40, β-galactosidase reporter.
Series [24] addresses Myogenin (full length, mouse) (mouse) (UniProt P12979). The series is described as above.
A further series relates to MyoD (Mus musculus). The series can be described thus: cell_activity. The note with it: NIH3T3.
Another series concerns Myogenin (Mus musculus). As to the kind of experiment: cell_activity. The following applies: NIH3T3.
The test system of a further series is Myf5 (Mus musculus). The series can be described thus: cell_activity. The note with it: NIH3T3.
For series [25], the system named is E12. The series can be described thus: cell_activity. The note with it: NIH3T3; 76.3% with I-mfa.

Experimental findings from patent publication US5885797 are described below.

LexA-I-mfa, sequence (P0A7C2 other isoform, or with tags, fused parts or gaps limits assumed): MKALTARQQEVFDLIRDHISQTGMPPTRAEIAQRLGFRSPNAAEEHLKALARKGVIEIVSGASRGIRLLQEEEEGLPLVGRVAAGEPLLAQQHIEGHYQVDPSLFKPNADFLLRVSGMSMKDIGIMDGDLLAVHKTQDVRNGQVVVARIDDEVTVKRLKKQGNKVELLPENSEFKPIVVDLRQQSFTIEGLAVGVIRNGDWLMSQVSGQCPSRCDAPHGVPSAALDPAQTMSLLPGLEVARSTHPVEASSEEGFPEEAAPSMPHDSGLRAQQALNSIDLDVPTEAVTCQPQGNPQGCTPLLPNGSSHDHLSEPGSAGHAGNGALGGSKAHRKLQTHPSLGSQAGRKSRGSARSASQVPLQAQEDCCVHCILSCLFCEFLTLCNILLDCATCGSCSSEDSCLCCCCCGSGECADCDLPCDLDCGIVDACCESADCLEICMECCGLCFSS
LexA-I-mfb, sequence (P0A7C2 other isoform, or with tags, fused parts or gaps limits assumed): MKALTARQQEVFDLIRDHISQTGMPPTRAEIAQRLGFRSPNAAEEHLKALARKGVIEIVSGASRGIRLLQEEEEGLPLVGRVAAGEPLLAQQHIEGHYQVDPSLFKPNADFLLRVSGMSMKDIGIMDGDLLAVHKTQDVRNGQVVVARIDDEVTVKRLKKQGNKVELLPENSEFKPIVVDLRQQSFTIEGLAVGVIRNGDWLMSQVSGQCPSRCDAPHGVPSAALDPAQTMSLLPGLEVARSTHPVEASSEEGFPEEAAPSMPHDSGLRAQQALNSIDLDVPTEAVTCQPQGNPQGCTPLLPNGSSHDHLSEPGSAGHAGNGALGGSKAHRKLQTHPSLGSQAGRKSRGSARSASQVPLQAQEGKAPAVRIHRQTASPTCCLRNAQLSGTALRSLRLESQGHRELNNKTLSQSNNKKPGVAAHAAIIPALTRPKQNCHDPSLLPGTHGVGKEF
LexA-I-mfc, sequence (P0A7C2 other isoform, or with tags, fused parts or gaps limits assumed): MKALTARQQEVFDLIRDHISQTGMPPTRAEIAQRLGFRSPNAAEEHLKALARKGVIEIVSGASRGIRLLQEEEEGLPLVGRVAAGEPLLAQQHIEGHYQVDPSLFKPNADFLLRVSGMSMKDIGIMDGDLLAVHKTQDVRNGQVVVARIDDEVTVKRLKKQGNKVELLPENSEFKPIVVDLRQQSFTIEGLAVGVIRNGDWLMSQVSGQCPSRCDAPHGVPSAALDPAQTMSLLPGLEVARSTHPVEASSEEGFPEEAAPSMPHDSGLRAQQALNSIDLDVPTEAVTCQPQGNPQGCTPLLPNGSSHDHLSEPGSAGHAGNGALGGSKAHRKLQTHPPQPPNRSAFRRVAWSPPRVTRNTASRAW
LexA-I-mfa (203-246), sequence (P0A7C2 other isoform, or with tags, fused parts or gaps limits assumed): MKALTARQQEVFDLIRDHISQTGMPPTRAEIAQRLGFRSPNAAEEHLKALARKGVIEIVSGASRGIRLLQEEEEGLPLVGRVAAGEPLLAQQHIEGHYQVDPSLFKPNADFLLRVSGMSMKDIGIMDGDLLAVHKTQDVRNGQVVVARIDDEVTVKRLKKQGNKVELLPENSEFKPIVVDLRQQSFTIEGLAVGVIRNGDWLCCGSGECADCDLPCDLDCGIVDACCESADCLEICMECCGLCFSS
LexA, sequence (P0A7C2 whole entry): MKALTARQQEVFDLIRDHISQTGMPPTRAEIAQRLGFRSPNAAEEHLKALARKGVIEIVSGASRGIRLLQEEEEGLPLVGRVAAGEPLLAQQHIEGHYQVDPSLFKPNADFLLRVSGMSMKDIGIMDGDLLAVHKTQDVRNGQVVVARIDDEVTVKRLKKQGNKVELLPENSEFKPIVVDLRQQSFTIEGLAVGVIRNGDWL
LexA-I-mfa (163-246), sequence (P0A7C2 other isoform, or with tags, fused parts or gaps limits assumed): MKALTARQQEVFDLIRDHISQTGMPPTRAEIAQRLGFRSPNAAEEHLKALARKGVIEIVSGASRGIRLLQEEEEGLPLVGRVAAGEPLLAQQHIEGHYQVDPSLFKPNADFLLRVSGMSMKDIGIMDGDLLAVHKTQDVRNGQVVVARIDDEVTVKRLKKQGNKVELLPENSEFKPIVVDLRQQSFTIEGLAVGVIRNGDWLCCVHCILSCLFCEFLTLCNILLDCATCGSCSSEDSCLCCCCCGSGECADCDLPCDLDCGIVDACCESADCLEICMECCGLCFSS

As for HA-I-mfa, the CAT (%) +Myf5, p4R-TK-CAT reporter, NIH3T3 in series [1] amounted to 2%. In addition, the Relative CAT Activity (%), experiment of Table 7 in the series with NLSMyf5 (mouse) is 3.7%; in series [2], 0.1%; in series [3], 0.6%; with NLSMyogenin (mouse) it was 7.5%. Further, the values for the Relative CAT Activity (%), p4R-TK-CAT, NIH3T3 in series [4], in [5] and in [6] were 0.9%, 1.5% and 10.6%, respectively.

In series [1], HA-I-mfa (1-202) gave a CAT (%) +Myf5, p4R-TK-CAT reporter, NIH3T3 of 5%. In addition, the CAT (%) +E12, p4R-TK-CAT reporter, NIH3T3 with E12 [7] came to 113%.

In [1], HA-I-mfa (29-246) showed a CAT (%) +Myf5, p4R-TK-CAT reporter, NIH3T3 of 4%. Further, in the series with E12 [7], the CAT (%) +E12, p4R-TK-CAT reporter, NIH3T3 came out at 81%.

Regarding HA-I-mfa (87-202), the CAT (%) +Myf5, p4R-TK-CAT reporter, NIH3T3 in series [1] was found to be 7%. The substance also displayed a CAT (%) +E12, p4R-TK-CAT reporter, NIH3T3 with E12 [7] of 89%.

In [1], HA-I-mfa (87-246) returned a CAT (%) +Myf5, p4R-TK-CAT reporter, NIH3T3 of 2%. This substance registered a CAT (%) +E12, p4R-TK-CAT reporter, NIH3T3 with E12 [7] of 53%.

HA-I-mfa (163-202) gave a CAT (%) +Myf5, p4R-TK-CAT reporter, NIH3T3 in series [1] of 44%. This substance showed a CAT (%) +E12, p4R-TK-CAT reporter, NIH3T3 with E12 [7] of 98%.

In turn, HA-I-mfa (163-246) yielded a CAT (%) +Myf5, p4R-TK-CAT reporter, NIH3T3 in [1] of 2%. In addition, in the series with E12 [7], the CAT (%) +E12, p4R-TK-CAT reporter, NIH3T3 is 18%.

As for HA-I-mfa (203-246), the CAT (%) +Myf5, p4R-TK-CAT reporter, NIH3T3 in series [1] stood at 78%. For the same substance, the CAT (%) +E12, p4R-TK-CAT reporter, NIH3T3 with E12 [7] turned out to be 93%.

Substance HA-I-mfb yielded a CAT (%) +Myf5, p4R-TK-CAT reporter, NIH3T3 in [1] of 74.5%. The same substance showed a CAT (%) +E12, p4R-TK-CAT reporter, NIH3T3 in the series with E12 [7] of 100%. In addition, the Relative CAT Activity (%), p4R-TK-CAT, NIH3T3 in series [4] worked out at 94.8%; in series [5], 82.7%; in series [6], 96.5%.

HA-I-mfc: the CAT (%) +Myf5, p4R-TK-CAT reporter, NIH3T3 in [1] was determined as 65%. The substance also came in with a CAT (%) +E12, p4R-TK-CAT reporter, NIH3T3 with E12 [7] of 99%. For the same substance, the Relative CAT Activity (%), p4R-TK-CAT, NIH3T3 in [4] turned out to be 96.4%; in series [5] it was 68%; in [6], 96.1%.

Consider LexA (from UniProt P0A7C2), for which the β-galactosidase activity (arbitrary units) was found to be 0.9 in series [8]; 0.6 in series [9]; 0.9 in series [10]; 1.6 in [11]; 2.3 with E12 [12]; 0.6 in series [13].

As to “LexA-I-mfa (1-202) (from UniProt P0A7C2)”, the β-galactosidase activity (arbitrary units) in series [14] was 34.5; with VP16-I-mfa (mouse) [15], 95; in series [16], less than 0.1.

Turning to “LexA-I-mfa (29-246) (from UniProt P0A7C2)”, the β-galactosidase activity (arbitrary units) in [14] was 84.7; with VP16-I-mfa (mouse) [15], 10.1; in series [16], 0.8.

In the case of “LexA-I-mfa (87-202) (from UniProt P0A7C2)”, the values for the β-galactosidase activity (arbitrary units) (in series [14]; with VP16-I-mfa (mouse) [15]; in [16]) were 27.6, 9.3 and less than 0.1, respectively.

As for “LexA-I-mfa (87-246) (from UniProt P0A7C2)”, the β-galactosidase activity (arbitrary units) in series [14] was determined as 74.3; with VP16-I-mfa (mouse) [15], 12.5; in series [16], 0.8; in the series with VP16-I-mfc (mouse) [17], 0.7.

On to “LexA-I-mfa (163-246) (from UniProt P0A7C2)”, for which the β-galactosidase activity (arbitrary units) in series [14] was determined as 71.3; in the series with VP16-I-mfa (mouse) [15], 3.8; in series [16] it was 0.3; in the series with VP16-I-mfc (mouse) [17] it was 0.2; with VP16-I-mfb (mouse) [18], 0.6.

For “LexA-I-mfa (203-246) (from UniProt P0A7C2)”, the β-galactosidase activity (arbitrary units) in series [16] was 45.8; in [19], 57.2; with VP16-I-mfa (mouse) [20] it was 95.2; with VP16-I-mfc (mouse) [21], 52.3; in the series with VP16-I-mfb (mouse) [22], 39.2.

For the substance LexA-I-mfa (from UniProt P0A7C2), the β-galactosidase activity (arbitrary units) in series [8] turned out to be 96.4; in series [9], 5.6; in series [10] it was 68.5; in [24], 63.6; in series [11], 2.3; in the series with E12 [12], 2.3. Also, the β-galactosidase activity (arbitrary units) is 4.3 in series [13], 66 in series [14], 6.4 with VP16-I-mfa (mouse) [15] and 0.5 in series [16]. Moreover, in series [23], the fold β-galactosidase activity over LexA-I-mfa alone fell in the range of 70 to 80 fold. For the same substance, the fold β-galactosidase activity over the LexA-I-mfa control in series [13] amounted to 5 fold.

As for “LexA-I-mfa(163-202) (from UniProt P0A7C2)”, the β-galactosidase activity (arbitrary units) in series [14] is 57.1; in the series with VP16-I-mfa (mouse) [15] it was 4.3; in the series with VP16-I-mfc (mouse) [17], less than 0.1; in the series with VP16-I-mfb (mouse) [18], 0.2.

With LexA-I-mfb (from UniProt P0A7C2), the β-galactosidase activity (arbitrary units) was 0.4 in series [10]; 0.6 in the series with E12 [12]; 1.1 in series [13]; less than 0.1 in series [14]; 0.2 in the series with VP16-I-mfa (mouse) [15]; less than 0.1 in [16]. In the series with VP16-I-mfb (mouse) [18], the β-galactosidase activity (arbitrary units) is less than 0.1.

For LexA-I-mfc (from UniProt P0A7C2), the β-galactosidase activity (arbitrary units) was 0.1 in series [11]; 1.4 with E12 [12]; 0.4 in series [13]; less than 0.1 with VP16-I-mfa (mouse) [15]; less than 0.1 in series [16]; less than 0.1 in the series with VP16-I-mfc (mouse) [17].

For MCK-CAT reporter, 3.3 kb MCK promoter, the activity was 37200 CAT units in the series with MyoD (Mus musculus) (reduced to 27% by I-mfa, text names p4R-TK-CAT but Table 6 MCK-CAT); 33000 CAT units in the series on Myogenin (Mus musculus) (reduced to 2% by I-mfa, text names p4R-TK-CAT but Table 6 MCK-CAT); 79500 CAT units with Myf5 (Mus musculus) (reduced to 9% by I-mfa, text names p4R-TK-CAT but Table 6 MCK-CAT).

In the case of “p4R-TK-CAT reporter, four oligomerized MyoD binding sites (E boxes)”, the activity in the series on MyoD (Mus musculus) (reduced to 10.6% by I-mfa) is 55400 CAT units; with Myogenin (Mus musculus) (reduced to 1.5% by I-mfa) it was 17400 CAT units; in the series with Myf5 (Mus musculus) (reduced to 0.9% by I-mfa), 53100 CAT units; in the series on E12 [25], 53600 CAT units.
